Reference: the RNAGym collection of RNA variant scans (doi:10.1021/acssynbio.7b00057)

B1: Pistol ribozyme (parent)
chain: GGGUCGUUGUUCCAUAAUCGCGUGGAUAUGGCACGCAAGUUUCUACCGGGCACCGUAAAUGUCCGACUGGAGCCGUUCGGGCGGCUAUAAACAGACCUCAGGCCCGAAGCGUGGCGGCACCUGCCGCCGGUGGUAAAAAAGAUCGGAAGAGCACACGUCU

Variants of: B1
Assay: aptazyme ON/OFF ratio, guanine; higher = stronger switching; co-transcriptional cleavage with and without guanine

| Variant | aptazyme ON/OFF ratio |
| --- | --- |
| U8A G9A C13U | 1.23 |
| U7G U11A C12U | 1.68 |
| U7G U11A C12G | 1.18 |
| U7G U11A C12A | 1.16 |
| U8A G9A U10G U11A C12U | 1.06 |
| U8A G9A U10G U11A C12A | 1.17 |
| U8A G9A U10G U11A C12G | 1.24 |
| U7G U10G U11G C12A C13A | 1.08 |
| U7G U10G U11G C12A C13U | 1.13 |
| U7G U10G U11G C12A C13G | 1.1 |
| U7G U10G C12U | 1.39 |
| U7G U11A C12U C13A | 1.19 |
| U7G U11A C12U C13G | 1.14 |
| U7G U11A C12U C13U | 1.28 |
| U8A G9A U10G U11C C12A C13A | 1.12 |
| U8A G9A U10G U11C C12A C13U | 1.16 |
| U8A G9A U10G U11C C12A C13G | 1.08 |
| U8A G9A U10A U11G C12U C13G | 1.18 |
| U8A G9A U10A U11G C12U C13U | 1.4 |
| U8A G9A U10A U11G C12U C13A | 1.3 |
| U8A G9A U10C C13G | 1.04 |

| Variant | aptazyme ON/OFF ratio |
| --- | --- |
| U8A G9A U10C C13A | 1.06 |
| U8A G9A U10C C13U | 1.11 |
| U8A G9A U10A U11C C12G C13G | 1.21 |
| U8A G9A U10A U11C C12G C13U | 1.25 |
| U8A G9A U10A U11C C12G C13A | 1.16 |
| U7G U10G C13G | 1.13 |
| U7G U10G C13U | 1.17 |
| U7G U10G C13A | 1.29 |
| U8A G9A U10A U11C | 1.05 |
| U8A G9A U10A U11G | 1.34 |
| U8A G9A U10A U11A | 1.35 |
| U8A G9A U10C U11G C12G C13G | 1.24 |
| U8A G9A U10C U11G C12G C13A | 1.28 |
| U8A G9A U10C U11G C12G C13U | 1.17 |
| U7G U11G | 1.32 |
| U7G U11A | 2.37 |
| U7G U11C | 1.11 |
| U8A G9A U10A U11G C13A | 1.12 |
| U8A G9A U10A U11G C13U | 1.18 |
| U8A G9A U10A U11G C13G | 1.08 |
| U8A G9A U10C U11A C12A | 1.31 |

| Variant | aptazyme ON/OFF ratio |
| --- | --- |
| U8A G9A U10C U11A C12U | 1.19 |
| U8A G9A U10C U11A C12G | 1.26 |
| U8A G9A U11A C12A C13G | 1.25 |
| U8A G9A U11A C12A C13A | 1.3 |
| U8A G9A U10C U11C C13G | 1.03 |
| U8A G9A U10C U11C C13U | 1.05 |
| U8A G9A U10C U11C C13A | 1.03 |
| U8A G9A U10C U11A C13A | 1.11 |
| U8A G9A U10C U11A C13G | 1.07 |
| U8A G9A U10C U11A C13U | 1.15 |
| U7G U11A C13A | 1.16 |
| U7G U11A C13G | 1.08 |
| U7G U11A C13U | 1.36 |
| U8A G9A U10C C12U C13G | 1.26 |
| U8A G9A U10C C12U C13U | 1.2 |
| U8A G9A U10C C12U C13A | 1.17 |
| U8A G9A U10G U11C C12G C13G | 1.14 |
| U8A G9A U10G U11C C12G C13U | 1.18 |
| U8A G9A U10G U11C C12G C13A | 1.16 |
| U8A C12U C13A | 1.28 |
| U8A C12U C13G | 1.35 |

| Variant | aptazyme ON/OFF ratio |
| --- | --- |
| U8A C12U C13U | 1.38 |
| U7G U11G C13G | 1.08 |
| U7G U11G C13U | 1.1 |
| U7G U11G C13A | 1.06 |
| U8A G9A U10G U11A C13U | 1.06 |
| U8A G9A U10G U11A C13G | 1.02 |
| U8A G9A U10G U11A C13A | 1.03 |
| U8A G9A U10A U11C C12G | 1.13 |
| U8A G9A U10A U11C C12U | 1.08 |
| U8A G9A U10A U11C C12A | 1.09 |
| U7G U11G C12G C13A | 1.09 |
| U7G U11G C12G C13U | 1.04 |
| U7G U11G C12G C13G | 1.14 |
| U7G U10G U11C C12A C13G | 1.12 |
| U7G U10G U11C C12A C13A | 1.11 |
| U7G U10G U11C C12A C13U | 1.17 |
| U8A G9A U10G C12U | 1.5 |
| U8A G9A U10G C12A | 1.2 |
| U8A G9A U10G C12G | 1.16 |
| U8A C12G C13U | 1.24 |
